Values belong to the binder of their own block, whether it stands above or below them. Positions of bridges follow the written chain, without caps; N, C: chain ends. Non-standard residues stand in square brackets, D forms with d. Re(V)O = rhenium(V) oxo core coordinated by cysteine thiolates and amide nitrogens
How the values were obtained:
[1] = biological target: T1, α-MSH receptor on B16-F1 murine melanoma cells (murine, UniProt Q01727 1-315); test: competitive receptor binding on B16-F1 murine melanoma cells
T1 construct: whole, on cells; also called α-melanotropin (α-MSH) receptors; melanotropin receptors
T1 sequence (Q01727 whole entry): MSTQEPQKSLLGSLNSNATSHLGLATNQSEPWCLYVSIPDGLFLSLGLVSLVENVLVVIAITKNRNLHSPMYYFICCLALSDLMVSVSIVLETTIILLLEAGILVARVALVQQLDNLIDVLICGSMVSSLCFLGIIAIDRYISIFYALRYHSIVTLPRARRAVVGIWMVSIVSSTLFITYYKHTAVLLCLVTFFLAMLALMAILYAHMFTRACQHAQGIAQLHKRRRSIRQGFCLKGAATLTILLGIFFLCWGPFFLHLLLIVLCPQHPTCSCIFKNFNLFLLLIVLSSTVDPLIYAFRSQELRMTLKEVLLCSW
Protocol: (§1) Quantitative receptor binding assays were carried out following a previously described method (Siegrist W., 1988; Sahm, U. G., 1994). […] The cells were rinsed with PBS, lysed with 1 M NaOH and counted in a 1275 minigamma gamma counter from LKB Wallac.
The ^99mTc- and ^188Re-labeled analogs of ReCCMSH were virtually inert to substitution in 10 mM Cys competition assays, while the ^99mTc- and ^188Re-labeled analogs of ReMSH were readily exchanged under the same assay conditions (Table 2). This increased stability of ReCCMSH probably resulted from the presence of an additional sulfur donor atom and from decreased backbone strain in the molecule due to the increased ring size. […] The ability of the ReCCMSH analog to stimulate melanin production was almost identical to APOMSH (Table 3).

[2] = biological target: T1, α-MSH receptor on B16-F1 murine …; test: cell-based or functional assay
[3] = biological target: T1, α-MSH receptor on B16-F1 murine …; test: cell-based or functional assay; remark: listed apart in the source
[4] = biological target: T1, α-MSH receptor on B16-F1 murine …; test: competitive receptor binding on B16-F1 murine melanoma cells, displacement of ^125I-[Nle4, D-Phe7]-α-MSH, 4° C., 8 hours
Protocol: as §1
The bioactivities of APOMSH and the ReMSH complex were assayed by measuring stimulation of melanin production by B16-F1 murine melanoma cells. The $EC50$ values for melanin synthesis by APOMSH and ReMSH were 2.6 ×10^-11 and 5.4 ×10^-10, respectively. […] Receptor binding assays were performed with APOMSH and ReMSH on B16-F1 murine melanoma cells.

fold decrease in receptor binding affinity compared to APOMSH [1]: ~100 fold
EC50 (M), melanin production by B16-F1 murine melanoma cells [2]: 5.4e-10 M
fold decrease in the ability to stimulate melanin production compared to APOMSH [3]: ~20 fold
Ki [4]: 66 nM
B1: ReMSH (peptide)
peptide: CEHFRWCKPV
modifications: not fully specified; N-terminal acetyl; D-Phe at position 7 (α-MSH numbering); C-terminal amide; cyclized by a Re(V)O core coordinated by the thiolate sulfurs of Cys4 and Cys10 and the amide nitrogens of Trp9 and Cys10
notes: Nonradioactive rhenium complex of APOMSH; also called rhenium α MSH analog ReMSH; ReMSH complex

fold higher receptor binding affinity than ReMSH [1]: ~25 fold
EC50 (M), melanin production by B16-F1 murine melanoma cells [2]: 3.5e-11 M
Ki [4]: 2.9 nM
B2: ReCCMSH (peptide)
peptide: Ac-CCEH[dF]RWCKPV-NH2
modifications: bridge 1-2-8 via Re(V)O; not fully specified; printed as NAc-Cys-Cys-Glu-His-D-Phe-Arg-Trp-Cys-Lys-Pro-Val-NH2; also: Re(V)O complex via thiolates of Cys3, Cys4, Cys10 and amide N of Cys4
notes: Nonradioactive rhenium complex of the APOMSH analog with an additional N-terminal Cys (Cys3); also called ReCCMSH analog

EC50 (M), melanin production by B16-F1 murine melanoma cells [2]: 2.6e-11 M
Ki [4]: 0.68 nM
B3: Cys^4,10, D-Phe^7-α-MSH4-13 (APOMSH) (peptide)
peptide: Ac-CEH[dF]RWCKPV-NH2
modifications: disulfide 1-7
SMILES: CC(=O)N[C@H]1CSSC[C@@H](C(=O)N[C@@H](CCCCN)C(=O)N2CCC[C@H]2C(=O)N[C@H](C(N)=O)C(C)C)NC(=O)[C@H](Cc2c[nH]c3ccccc23)NC(=O)[C@H](CCCNC(=N)N)NC(=O)[C@@H](Cc2ccccc2)NC(=O)[C@H](Cc2c[nH]cn2)NC(=O)[C@H](CCC(=O)O)NC1=O
notes: Synthetic cyclic α-MSH analog without metal; starting peptide for ReMSH; also called metal-free peptide

From patent publication US6607709 (CURATORS OF THE UNIVERSITY OF MISSOURI, dated 2003)
